By Kd is commonly meant the concentration at which binding is half-saturated.

This experiment concerns the target microtubule polymerized from porcine brain tubulin, stabilized with paclitaxel (porcine). Description: co-sedimentation.

“purified γ stalk–LC1 complex (from UniProt Q9XHH2 1-198)” had a Bmax/Kd of 0.053 and a Kd of 19 µM.

The values are drawn from article PMC4642857.
